Key:
[1] = test system: P. aeruginosa biofilms; experiment: in vitro P. aeruginosa biofilm assay; assay type: cell-based; conditions: 0.1-20 mg/mL, 24 hour contact time
[2] = test system: S. epidermidis, P. aeruginosa (pig clinical isolate); experiment: open-wound porcine treatment model; assay type: in vivo; conditions: wounds contaminated, treated after 2 hrs, biopsied 4 hrs after treatment
Description: Each wound was contaminated with bacteria (S. epidermidis, P. aeruginosa (pig clinical isolate)). After 2 hrs, wounds were rinsed with saline and treated with 5 mL of test article or water. Test articles: K100(rac-L)20 (SEQ ID NO: 12) at 10, 2, 0.4 mg/mL, 10 mg/mL K100(rac-L)20 (SEQ ID NO: 12) and 30 mg/mL PEG 400 in water, and deionized water as a control. Gauze soaked in test article or water was placed on top of the wounds. Wounds were biopsied at 4 hrs after treatment.
Aqueous compositions that include mixtures of synthetic cationic polypeptides with two different polymers (polyethylene glycol 400 and hydroxyethyl cellulose) were both found to be effective in vivo. As depicted in FIG. 25, K100(rac-L)20 (SEQ ID NO: 12) was effective in an porcine open-wound treatment model alone and in combination with PEG 400. […] The aqueous compositions described herein can be used for any one or more treatments and/or applications, including but not limited to prevention of infections, treatment of infections, treatment for topical anti-infection, treatment for microbial decolonization, wound treatment, surgical site treatment, trauma treatment, burn treatment, treatment of diabetic foot ulcers, eye treatment, treatment of vaginal infections, treatment of urinary tract infections, hand sanitization, for coating prosthetic devices and/or implants, food preservation and solution preservation.

[3] = texture analysis profile (firmness, work of adhesion); assay type: physicochemical; conditions: 1% (w/w) polypeptide and 1% (w/w) HEC in water
Excerpt: FIGS. 20A and 20B show A) firmness values for mixtures of 1% solutions of synthetic cationic polypeptides with 1% hydroxyethyl cellulose (HEC, Natrosol HHX) in water (FIG. 20A); and B) work of adhesion values for mixtures of 1% solutions of copolypeptides with 1% hydroxyethyl cellulose (HEC, Natrosol HHX) in water (FIG. 20B).
Values for 1% (w/w) polypeptide in water. b. Values for 1% polypeptide/1% HEC (w/w) in water. c. Interaction parameter: ΔF=Fmix(poly/HEC)−(Fpoly+FHEC). Where Fmix(poly/HEC)=firmness of 1% polypeptide/1% HEC, Fpoly=firmness of 1% polypeptide solution, and FHEC=firmness of 1% HEC (Natrosol HHX) in water. Similar treatment of data was performed for the work of adhesion interaction parameter.
A texture analysis profile has been used to determine the effects of block copolypeptide composition and hydrophobic enantiopurity on the mechanical properties of the block copolypeptide/HEC mixtures (FIGS. 20A and 20B). […] This corresponds to an interaction parameter value of 14.45 mN and an overall increase of over 170% over what would be expected from the additive contributions of the individual components. […] Hydrophobic block length was also shown to be influential.

B1: K100(rac-L)20: synthetic cationic copolypeptide: lysine segment and shorter racemic hydrophobic leucine block (peptide)
chain: KKKKKKKKKKKKKKKKKKKKKKKKKKKKKKKKKKKKKKKKKKKKKKKKKKKKKKKKKKKKKKKKKKKKKKKKKKKKKKKKKKKKKKKKKKKKKKKKKKKKLLLLLLLLLLLLLLLLLLLL
modifications: racemic leucine block; K100(rac-L)20; rac-L (101)..(120)
effectiveness against P. aeruginosa biofilms in vitro [1]: effective
effectiveness in porcine open-wound treatment model [2]: effective
effect on adhesiveness / work of adhesion of mixing polypeptide with HEC [3]: no effect
effect on firmness of mixing polypeptide with HEC [3]: no effect

B2: K100L20: synthetic cationic copolypeptide: lysine segment and leucine segment (peptide)
chain: B1 chain
modifications: K100L20
effect on adhesiveness / work of adhesion of mixing polypeptide with HEC [3]: antagonistic
effect on firmness of mixing polypeptide with HEC [3]: increased firmness

B3: K100: lysine homopolypeptide (peptide)
chain: KKKKKKKKKKKKKKKKKKKKKKKKKKKKKKKKKKKKKKKKKKKKKKKKKKKKKKKKKKKKKKKKKKKKKKKKKKKKKKKKKKKKKKKKKKKKKKKKKKKK
modifications: K100
notes: lysine homopolypeptide
effect on adhesiveness / work of adhesion of mixing polypeptide with HEC [3]: failed to enhance
effect on firmness of mixing polypeptide with HEC [3]: failed to enhance
